Laboratory results: patent US20240307509A1, “PLACENTAL ALKALINE PHOSPHATASE FOR STARTING EARLY TREATMENT OF CANCER PATIENTS EXHIBITING NO DETECTABLE LOSS OF BODY AND MUSCLE WEIGHT AS YET TO PREVENT OR REDUCE THE LOSS OF MUSCLE PROTEINS” (MNPHARM SBC, priority 2021, published 2024)
Values joined by “and” are separate entries in the source; they are usually repeats but may differ in a detail not shown here. Equal values may be shown once.

Key:
[1] = test system: T47D human estrogen receptor positive breast carcinoma; test: Tumor growth and survival of Cyp treated mice bearing T47D breast carcinoma; format: in vivo
Protocol: T47D estrogen receptor positive human breast cancer cells were from American Tissue Culture Collection (10801 University Boulevard, Manassas, Virginia, 20110-2209, United States).
First generation hybrid BDF1 (C57BL female x DBA/2 male) 6 weeks old, weighing 22-23 grams, specified pathogen free (SPF) hygienic category colonies were used. The animals were kept in macrolon cage at 22-24 0 C° (45-55% humidity), with a lightning regimen of 12/12 h light/dark. The animals had free access to tap water and were fed with a sterilized standard diet (Charles River VRF1, autoclavable, Germany) ad libitum.
T47D mammary tumor pieces (maintained in mouse tail, containing about 1.5×10^6 tumor cells) were implanted subcutaneously into the intrascapular region to develop the tumors. After 15 days, when the tumor-bearing mice were first treated, the sizes of the tumors were in the 0.27-0.34 cm^3 range. PLAP and Cyp were dissolved in 0.9% sodium chloride and applied subcutaneously (PLAP) or intraperitoneally (Cyp) in 50 μl volume. In the first group (n=7), animals received no treatment. In the second group (n=7), mice were administered 120-mg/kg of Cyp on day 15 followed by eleven consecutive treatments on every second day (days 17, 19, 21, 23, 25, 27, 29, 31, 35, 37, and 39) with the same dose. In the third group (n=7), treatment with Cyp (on the same days as in group 2) was accompanied by administration of 7.5 mg per kg of PLAP on days 15, 20, 25, 30, 35, and 40. Tumor volume was measured on days 15, 18, 21, 24, 27, 31, 35, 40, and 46, and body weight was measured on day 46. Then the animals were kept without additional treatment to determine survival rates.

[2] = test system: T47D human breast cancer tumor; test: Skeletal muscle proteins in the Cyp treated human T47D tumor model; format: in vivo, mice; conditions: gastrocnemius, day 28; PLAP 7.5 mg per kg subcutaneously days 14, 17, 20, 23, 26; Cyp intraperitoneally days 15-27 every second day
Protocol: PLAP and Cyp were dissolved in 0.9% sodium chloride and applied subcutaneously (PLAP) or intraperitoneally (Cyp) in […] volume. […] In the fourth and fifth groups mice also received Cyp on days 15, 17, 19, 21, 23, 25, and 27. On day 28, body weights were measured first followed by determining the tumor volumes. After the mice were put to death under anesthesia, the gastrocnemius muscles were excised to determine total proteins by using a Sigma kit.

L6 myoblasts [3] = test: Proliferation of L6 myoblasts with or without IGF-1 (MTT assay); format: cell-based; conditions: serum-free medium, 72 hours; IGF-1 50 nM, rPLAP 150 nM, PLAP 150 nM
Protocol: L6 myoblasts were grown in 96-well plates in 10% FBS containing DMEM up to 30% confluency. Then the medium was changed to serum-free medium, and after 2 hours, cells were treated with IGF-1 (50 nM), or rPLAP (150 nM), or PLAP (150 nM) in the absence or presence of IGF-1 for 72 hours, followed by the MTT assay (absorbance; A540) as described by others assay [Carmichael, J, De Graff, W.G., Gazdar, A.F., Minna, J.D. and Mitchell, J.B. Evaluation of tetrazolium-based semiautomated colorimetric assay: Assessment of chemosensitivity testing. Cancer Res. 47, 936-942, 1987].

L6 myoblasts [4] = test: Proliferation of L6 myoblasts in the presence of myostatin (MTT assay); format: cell-based; conditions: 96 hours
Protocol: In this experiment, L6 myoblasts were seeded in 10% serum containing Dulbecco's modified Eagles (DMEM) medium in 96-well plates (n=8 for each treatment). After 24 hours at 30% confluence, the medium was changed to 2% serum-containing medium (0 time) and then treated with 0.25 μg/ml or 1 ug/ml myostatin (MSTN-from the R&D Systems-catalog no. 788-GB-010) in the absence or presence of 25 nM, 100 nM, or 200 nM PLAP for 96 hours. The relative number of viable cells (A540) was determined by the MTT assay [Carmichael, J, De Graff, W.G., Gazdar, A.F., Minna, J.D. and Mitchell, J.B. Evaluation of tetrazolium-based semiautomated colorimetric assay: Assessment of chemosensitivity testing. Cancer Res. 47, 936-942, 1987]. The value measured at 0 time is subtracted from the 96-hour values.

[5] = ATP as substrate of alkaline phosphatases (unpublished data); format: biochemical; conditions: compared to IALP or TNAP
Source text: This invention can also use an alkaline phosphatase (AP) which is a hybrid derivative of two APs. For example, in such a hybrid one critical segment may originate from PLAP accounting for the heat stability, and another segment may originate from a different AP accounting for a higher catalytic phosphatase activity or another useful property. As an example, envisioned in the disclosure, such hybrid may contain up to roughly 50% of the sequence of PLAP providing stability, and up to roughly 50% of the sequence of another human AP providing the catalytic alkaline phosphatase activity. The rationale for using such hybrid is that of the APs, PLAP has by far the greatest stability in the circulation, while other APs may have greater catalytic activities towards some specific substrates.

[6] = purified PLAP, literature (Clubb et al. 1965); cited from earlier work
[7] = Spectrophotometric assay of PLAP enzyme activity; format: biochemical; conditions: 10 mM 4-nitrophenylphosphate, 22° C., pH 9.8; 1 U = 1 umole substrate hydrolyzed/min
Protocol: PLAP as determined by sodium dodecyl sulfate-polyacrylamide gel electrophoresis (SDS-PAGE). The enzyme activity of PLAP was assayed using a spectroscopic method to monitor the hydrolysis of 4-nitrophenylphosphate (as an increase in absorbance at 410 nm) at room temperature (22° C.) as described in [Chang, G.-G., Shiao, M.-S., Lec, K.-R. and Wu, J.-J., Modification of human placental alkaline phosphatase by periodate-oxidized 1,N6-ethenoadenosine monophosphate. Biochem. J., 272, 683-690, 1990]. Activity analysis of 5-10-μg purified enzyme was performed in 1 mI. incubation volume containing 50 mM Na2CO3/NaHCO3, 10 mM MgCl2, 10 mM 4-nitrophenylphosphate at pII 9.8. The extinction coefficient of 4-nitrophenol was taken as 1.62×10^4 M^−1 cm^−1. An enzyme activity of I U (unit) is defined as 1 umole substrate hydrolyzed/min at 22° C. at pH 9.8. The pure PLAP was further identified by sequence analysis performed by the Mayo Clinic Protein Core Facility (Rochester, MN, US). The specific activity of purified PLAP was 685 Units per mg protein.

[8] = test system: PC-3 human prostate adenocarcinoma tumor; test: Subcutaneously administered PLAP in the cachectic PC-3 mouse tumor model; format: in vivo, mice; conditions: day 28
Source text: PC-3 human prostate cancer cell-derived aggressive tumors are cachectic depending on the mouse strain used for tumor development. In the following experiment, a cachectic mouse model of human prostate tumor was used.
PC-3 human prostate adenocarcinoma tissue pieces (0.1 cm^3 volume) were implanted subcutaneously into the intrascapular region of 6 weeks old female mice [homozygous line of C.B .-171cr scid/scid] to develop the tumors. The mice were kept at specified pathogen free (SPF) hygienic levels. In the first group of mice (7 mice), no tumors were developed (tumor free control). In the second group of mice (7 mice), tumors were developed but remained untreated. In the third group of mice (7 mice), on days 8, 11, 14, 17, 21 and 25 after transplantation of PC-3 tumors, mice were administered 4 mg/kg of PLAP subcutaneously. The weight and total protein content of m. gastrocnemius (using a protein determination kit from Sigma), tumor weight, lean body weight (total weight minus tumor weight), and the weight of abdominal fat tissue were determined on day 28 (after tumor transplantation).

[9] = Cyp 120 mg/kg intraperitoneally, PLAP 7.5 mg/kg subcutaneously
[10] = numbers in parentheses, n=7 per group
[11] = m. gastrocnemius, PLAP 4 mg/kg subcutaneously on days 8, 11, 14, 17, 21, 25

In the case of O.O=P1(N(CCCl)CCCl)NCCCO1 (centres unmarked) [Cyp, 2-[Bis (2-chloroethyl)amino] tetrahydro-2H-1,3,2-oxazaphosphorine 2-oxide monohydrate], the “Tumor volume Day 18” value ([1]; Cyp 120 mg/kg intraperitoneally every second day from day 15, PLAP 7.5 mg/kg subcutaneously every 5 days) is reported as 0.33 ± 0.11 cm^3, the “Tumor volume Day 21” value [1, 9] is reported as 0.56 ± 0.10 cm^3 and the “Tumor volume Day 24” value [1, 9] is reported as 0.72 ± 0.20 cm^3. The “Tumor volume Day 27” value [1, 9] was 0.91 ± 0.22 cm^3, the “Tumor volume Day 31” value [1, 9] was 1.06 ± 0.17 cm^3 and the “Tumor volume Day 35” value [1, 9] was 1.22 ± 0.32 cm^3. The “Tumor volume Day 40” value [1, 9] was 1.68 ± 0.29 cm^3, the “Tumor volume Day 46” value [1, 9] was 1.82 ± 0.24 cm^3 and the “Survival Mean” value ([1]; T47D tumor bearing animals, n=7, monohydrate) was 49 days and 49.3 days. For the same molecule, the “body weight less compared to the untreated group” value ([1]; body weight measured on day 46) was 1.4%, the “Tumor volume Day 15” value ([1]; day of first treatment, Cyp 120 mg/kg intraperitoneally, PLAP 7.5 mg/kg subcutaneously) was 0.30 ± 0.11 cm^3 and the “number of mice alive Day 35” value [1, 10] was 7. The “number of mice alive Day 40” value [1, 10] was 7, the “number of mice alive Day 46” value [1, 10] was 5 and the Survival % ([1]; relative to untreated (None = 100)) was 129%. For the same molecule, the “Total Muscle Protein” value [2] was 11.31 ± 0.43 mg per 100 mg of muscle weight.

With “IGF-1: insulin like growth factor-1 [reference compound]” the “L6 myoblast proliferation (A540) (minus 0-time value)” value (L6 myoblasts [3]) was 0.280 ± 0.030 A540.

In the case of “Myostatin: myostatin (MSTN) from R&D Systems, catalog no. 788-GB-010 [reference compound]”, the “L6 myoblast proliferation minus 0-time value (A540)” value (L6 myoblasts [4]; Myostatin 0.25 μg/ml, no PLAP, 2% serum) is reported as 0.214 ± 0.032 A540 and the “L6 myoblast proliferation minus 0-time value (A540)” value (L6 myoblasts [4]; Myostatin 1.0 μg/ml, no PLAP, 2% serum) is reported as 0.175 ± 0.030 A540.

B1: PLAP: highly purified native placental alkaline phosphatase derived from human placenta via conventional purification methods (protein, UniProt P05187 23-506, looked up)
Alkaline phosphatase, …: IIPVEEENPDFWNREAAEALGAAKKLQPAQTAAKNLIIFLGDGMGVSTVTAARILKGQKKDKLGPEIPLAMDRFPYVALSKTYNVDKHVPDSGATATAYLCGVKGNFQTIGLSAAARFNQCNTTRGNEVISVMNRAKKAGKSVGVVTTTRVQHASPAGTYAHTVNRNWYSDADVPASARQEGCQDIATQLISNMDIDVILGGGRKYMFRMGTPDPEYPDDYSQGGTRLDGKNLVQEWLAKRQGARYVWNRTELMQASLDPSVTHLMGLFEPGDMKYEIHRDSTLDPSLMEMTEAALRLLSRNPRGFFLFVEGGRIDHGHHESRAYRALTETIMFDDAIERAGQLTSEEDTLSLVTADHSHVFSFGGYPLRGSSIFGLAPGKARDRKAYTVLLYGNGPGYVLKDGARPDVTESESGSPEYRQQSAVPLDEETHAGEDVAVFARGPQAHLVHGVQEQTFIAHVMAFAACLEPYTACDLAPPAGTTD
For B1, the “L6 myoblast proliferation minus 0-time value (A540)” value (L6 myoblasts [4]; PLAP 25 nM, Myostatin 0.25 μg/ml) was 0.325 ± 0.038 A540, the “L6 myoblast proliferation minus 0-time value (A540)” value (L6 myoblasts [4]; PLAP 25 nM, Myostatin 1.0 μg/ml) was 0.300 ± 0.023 A540 and the “L6 myoblast proliferation minus 0-time value (A540)” value (L6 myoblasts [4]; PLAP 25 nM, No Myostatin) was 0.410 ± 0.025 A540. The “L6 myoblast proliferation minus 0-time value (A540)” value (L6 myoblasts [4]; PLAP 100 nM, Myostatin 0.25 μg/ml) was 0.430 ± 0.024 A540, the “L6 myoblast proliferation minus 0-time value (A540)” value (L6 myoblasts [4]; PLAP 100 nM, Myostatin 1.0 μg/ml) was 0.402 ± 0.027 A540 and the “L6 myoblast proliferation minus 0-time value (A540)” value (L6 myoblasts [4]; PLAP 100 nM, No Myostatin) was 0.541 ± 0.022 A540. The “L6 myoblast proliferation minus 0-time value (A540)” value (L6 myoblasts [4]; PLAP 200 nM, Myostatin 0.25 μg/ml) was 0.542 ± 0.069 A540, the “L6 myoblast proliferation minus 0-time value (A540)” value (L6 myoblasts [4]; PLAP 200 nM, Myostatin 1.0 μg/ml) was 0.500 ± 0.033 A540 and the “L6 myoblast proliferation minus 0-time value (A540)” value (L6 myoblasts [4]; PLAP 200 nM, No Myostatin) was 0.707 ± 0.032 A540. The ATP as substrate [5] was “weak substrate”, the “half-life time in human circulation” value [6] was “about 7 days” and the specific activity [7] was 685 Units per mg protein. The “L6 myoblast proliferation (A540) (minus 0-time value)” value (L6 myoblasts [3]) was 0.267 ± 0.025 A540, the “inhibition of tumor growth” value ([8]; PLAP 4 mg/kg subcutaneously) was 32% and the “loss of lean body weight” value ([8]; PLAP treated tumor (41% in untreated)) was 18%. The “loss of abdominal fat tissue” value ([8]; PLAP treated tumor (46% in untreated)) was 12%, the “Tumor Weight” value ([8]; PLAP 4 mg/kg subcutaneously) was 2.9 ± 0.4 g and the “Muscle Mass” value [8, 11] was 93 ± 9 mg. The “Muscle Protein” value [8, 11] was 13.3 ± 1.3 mg/100 mg of muscle weight, the “Lean Body Weight” value ([8]; total weight minus tumor weight, PLAP 4 mg/kg subcutaneously) was 25.9 ± 2.8 g and the “Abdominal Fat Tissue” value ([8]; weight, PLAP 4 mg/kg subcutaneously) was 0.66 ± 0.07 g. For the same molecule, the “Total Muscle Protein” value [2] was 13.20 ± 0.38 mg per 100 mg of muscle weight.
